{
  "source": "patent US20200399385A1",
  "about": "(Bristol-Myers Squibb, published 2020)",
  "binders": {"B1": {"name": "OX40.6 (antibody, human IgG1, kappa, V domains shown)", "VH": "EVQLVQSGGGLVQPGGSLRLSCAGSGFTFSNYAMYWVRQAPGKGLEWVSAIGIGGDTFYTDSVKGRFTISRDNAKNSLSLQMNSLRAEDTAVYYCARMGTGYFFDYWGQGTLVTVSS", "VL": "EIVLTQSPATLSLSPGERATLSCRASQSVSSYLAWYQQKPGQAPRLLIYDASNRATGIPARFSGSGSGTDFTLTISSLEPEDFAVYYCQQRSNWPLTFGPGTKVDIKR"}, "B2": {"name": "14B6 (antibody, V domains shown)", "VH": "EVQLEQSGAEVKKPGESLKISCKGSGYSFTSNWIGWVRQMPGKGLEWMGFIYPGDSDTRYSPSFQGQVTISADKSISTAYLQWSSLKASDIAMYYCARYGDDWYFDLWGRGTLVTVSS", "VL": "EIVLTQSPATLSLSPGERATLSCRASQSVSSYLAWFQQRPGQAPRLLIYDASNRATGIPARFSGSGSGTDFSLTISSLEPEDFAVYYCQQRGDWPITFGQGTRLEIK", "notes": "also called 14B6.C5.C8; 14B6.C5"}},
  "key": {"cynomolgus OX40 on cells [1]": {"molecular_target": "T1, cynomolgus OX40 on cells (cynomolgus, UniProt P43489 29-277 (human entry))", "T1 construct": "also called cynoOX40-CHO", "T1 chain": "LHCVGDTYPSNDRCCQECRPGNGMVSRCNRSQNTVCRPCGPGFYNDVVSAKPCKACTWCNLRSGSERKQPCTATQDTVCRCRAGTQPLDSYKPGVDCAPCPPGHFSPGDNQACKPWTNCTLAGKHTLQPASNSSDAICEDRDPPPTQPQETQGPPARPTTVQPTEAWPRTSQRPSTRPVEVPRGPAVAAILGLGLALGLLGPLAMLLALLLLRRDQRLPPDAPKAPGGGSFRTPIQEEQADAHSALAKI", "test": "FACS, activated cyno T cells; mean ± SD, n=5", "method": "(§1) Briefly, cells were activated for several days before the binding assay in order to induce OX40 expression. Total leukocytes were isolated from cynomolgus macaque peripheral blood by lysis of red blood cells using an ammonium chloride buffer. The leukocytes were then cultured for four to five days with in flasks pre-coated with anti-human CD3 plus anti-human CD28 antibodies that cross-react with cynomolgus macaque, in the presence of recombinant human IL-2, in order to expand and activate T cells. On the day of the assay, the cells were harvested and stained with a titration of each anti-OX40 antibody. Bound antibodies were detected with a fluorescently conjugated anti-human IgG polyclonal secondary antibody, and the cells were co-stained for CD4 and CD25 to detect activated CD4 T cells. The fluorescence intensity of the staining was measured using a FACSCanto II flow cytometer (Becton Dickinson). The geometric mean fluorescence intensity (GMFI) or median fluorescence intensity (MedFI) of anti-OX40 antibody staining was calculated for the CD4+CD25+ population (FACSDiva software). Dose-response curves were generated and EC50s for antibody binding were calculated using GraphPad Prism software."}, "cynomolgus OX40 on cells [2]": {"molecular_target": "T1, cynomolgus OX40 on cells", "test": "FACS, activated cyno CD4 T cells", "method": "as §1\nThe same experiment was performed with anti-OX40 antibodies with variable region substitutions."}, "human OX40 on cells [3]": {"molecular_target": "T2, human OX40 on cells (human, UniProt P43489 29-277)", "T2 construct": "also called hOX40-293 cells; hOX40-HT1080", "T2 sequence": "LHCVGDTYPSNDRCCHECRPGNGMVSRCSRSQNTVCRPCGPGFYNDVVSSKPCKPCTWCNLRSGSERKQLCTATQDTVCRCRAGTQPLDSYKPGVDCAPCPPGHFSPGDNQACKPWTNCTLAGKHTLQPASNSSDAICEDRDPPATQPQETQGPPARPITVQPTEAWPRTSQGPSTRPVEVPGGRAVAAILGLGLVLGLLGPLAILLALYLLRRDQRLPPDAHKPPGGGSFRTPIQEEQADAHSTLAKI", "test": "FACS, activated human T cells; mean ± SD, n=7"}, "human OX40 on cells [4]": {"molecular_target": "T2, human OX40 on cells", "test": "FACS competition on hOX40-293 cells against biotin-OX40.5 (spike biotOX.5 @ 1.0 ug/mL, streptavidin-APC); partial inhibition, FL4-MFI falls from about 29000 to about 17000; the table gives no unit, axis in nM"}, "human OX40 on cells [5]": {"molecular_target": "T2, human OX40 on cells", "test": "cell-based or functional assay"}, "human OX40 on cells [6]": {"molecular_target": "T2, human OX40 on cells", "test": "cell-based or functional assay", "remark": "listed apart in the source"}, "human OX40 on cells [7]": {"molecular_target": "T2, human OX40 on cells", "test": "FACS competition on HT1080-hOX40 cells against APC-OX40.1 (FL2 MFI); the table gives no unit, axis 'Ab conc nM'", "method": "This experiment was performed to test the cross-blocking properties of various anti-OX40 antibodies to assess binding specificities. […] Cells were washed and if necessary further incubated in the presence of streptavidin-APC conjugate under the same conditions. After the final wash, cells were analyzed on a FACSCanto flow cytometer (BD Bioscience, San Jose, Calif.). Mean fluorescence intensity (MFI) signal was proportional to bound conjugated antibody."}, "[8]": {"molecular_target": "T3, his-tagged soluble human OX40 (huOX40-6xhis) (human, UniProt P43489 29-214)", "T3 construct": "made in-house; also called Human-OX40-6XHIS; hOX40; not shown: hexahistidine tag", "T3 sequence": "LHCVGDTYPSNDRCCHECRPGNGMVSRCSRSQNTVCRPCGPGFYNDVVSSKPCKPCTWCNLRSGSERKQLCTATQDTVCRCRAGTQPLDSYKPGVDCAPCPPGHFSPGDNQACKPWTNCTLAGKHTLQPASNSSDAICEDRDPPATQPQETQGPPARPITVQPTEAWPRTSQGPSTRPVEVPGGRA", "test": "SPR, mAb captured on anti-human CH1, OX40-6XHIS analyte, 1:1 fit", "method": "The affinity of several OX40 antibodies for soluble human OX40 was tested by SPR analysis. […] Human-OX40-6XHIS antigen in either a single concentration of 400 nM or a 1:2 serial dilution from 400 nM was used. Experiments were carried out on BIACORE® T200 or BIACORE® 3000 SPR instruments. Data was fit to a 1:1 model."}, "cynomolgus OX40 on cells [9]": {"molecular_target": "T1, cynomolgus OX40 on cells", "test": "FACS, activated cyno T cells; n=1", "method": "as §1"}, "human OX40 on cells [10]": {"molecular_target": "T2, human OX40 on cells", "test": "FACS, blocking of OX40L-His (0.2 µg/mL) binding to hOX40-293 cells", "method": "Briefly, 293 cells stably transfected with human OX40 were first pre-incubated with varying concentrations of anti-OX40 antibodies. […] The fluorescence intensity of the staining was measured using a FACSCanto II flow cytometer (Becton Dickinson)."}, "human OX40 on cells [11]": {"molecular_target": "T2, human OX40 on cells", "test": "FACS, activated human T cells; mean ± SD, n=2", "method": "Cells were activated for several days before the binding assay in order to induce OX40 expression. Briefly, PBMCs were cultured for three or four days with magnetic beads coated with anti-human CD3 plus anti-human CD28, in the presence of recombinant human IL-2. On the day of the assay, the beads were removed and the cells stained with a titration of each anti-OX40 antibody. Bound antibodies were detected with a fluorescently conjugated anti-human IgG polyclonal secondary antibody, and the cells were co-stained for CD4 and CD25 to detect activated CD4 T cells. The fluorescence intensity of the staining was measured using a FACSCanto II flow cytometer (Becton Dickinson). The geometric mean fluorescence intensity (GMFI) or median fluorescence intensity (MedFI) of anti-OX40 antibody staining was calculated for the CD4+CD25+ population (FACSDiva software). EC₅₀s for antibody binding were calculated using GraphPad Prism software."}},
  "data": [
    {"binder": "B1", "values": [
      {"measurement": "EC50", "setting": "cynomolgus OX40 on cells [1]", "result": 110, "unit": "pM"},
      {"measurement": "EC50", "setting": "cynomolgus OX40 on cells [2]", "result": "≤ 120", "unit": "pM"},
      {"measurement": "EC50", "setting": "human OX40 on cells [3]", "result": 130, "unit": "pM"},
      {"measurement": "EC50", "setting": "human OX40 on cells [4]", "result": 857, "unit": "pM"},
      {"measurement": "IL-2 EC50, SEB PBMC, donor BMS-001", "setting": "human OX40 on cells [5]", "result": 490, "unit": "pM"},
      {"measurement": "IL-2 EC50, SEB PBMC, donor BMS-004", "setting": "human OX40 on cells [5]", "result": 480, "unit": "pM"},
      {"measurement": "IL-2 EC50, SEB PBMC, donor BMS-009", "setting": "human OX40 on cells [5]", "result": 450, "unit": "pM"},
      {"measurement": "IL-2 EC50, SEB PBMC, donor BMS-012", "setting": "human OX40 on cells [5]", "result": 660, "unit": "pM"},
      {"measurement": "IL-2 EC50, SEB PBMC, donor BMS-015", "setting": "human OX40 on cells [5]", "result": "~460", "unit": "pM"},
      {"measurement": "IL-2 EC50, SEB PBMC, donor BMS-016", "setting": "human OX40 on cells [5]", "result": 290, "unit": "pM"},
      {"measurement": "IL-2 EC50, SEB PBMC, donor WB10024", "setting": "human OX40 on cells [5]", "result": "~420", "unit": "pM"},
      {"measurement": "IL-2 EC50, SEB PBMC, donor WB10025", "setting": "human OX40 on cells [5]", "result": "~850", "unit": "pM"},
      {"measurement": "IL-2 EC50, SEB PBMC, donor WB10026", "setting": "human OX40 on cells [5]", "result": 280, "unit": "pM"},
      {"measurement": "IL-2 EC50, SEB PBMC, donor WB10027", "setting": "human OX40 on cells [5]", "result": 450, "unit": "pM"},
      {"measurement": "IL-2 EC50, SEB PBMC, donor WB10137", "setting": "human OX40 on cells [5]", "result": 560, "unit": "pM"},
      {"measurement": "IL-2 Mean EC50, SEB PBMC, all donors", "setting": "human OX40 on cells [5]", "result": 460, "unit": "pM"},
      {"measurement": "IFNγ EC50, CD4 T cells + CHO-CD3-CD32A", "setting": "human OX40 on cells [6]", "result": 33, "unit": "pM"},
      {"measurement": "Proliferation EC50, CD4 T cells + CHO-CD3-CD32A", "setting": "human OX40 on cells [6]", "result": 32, "unit": "pM"}
    ]},
    {"binder": "B2", "values": [
      {"measurement": "IC50", "setting": "human OX40 on cells [7]", "result": 700, "unit": "pM"},
      {"measurement": "Kd", "setting": "[8]", "result": 8840, "unit": "pM"},
      {"measurement": "koff", "setting": "[8]", "result": 0.000654, "unit": "s⁻¹"},
      {"measurement": "kon", "setting": "[8]", "result": 74000, "unit": "M⁻¹ s⁻¹"},
      {"measurement": "EC50", "setting": "cynomolgus OX40 on cells [9]", "result": 310, "unit": "pM"},
      {"measurement": "Proliferation EC50, CD4 T cells + CHO-CD3-CD32A", "setting": "human OX40 on cells [6]", "result": 12, "unit": "pM"},
      {"measurement": "EC50", "setting": "human OX40 on cells [10]", "result": 1000, "unit": "pM"},
      {"measurement": "EC50", "setting": "human OX40 on cells [11]", "result": 180, "unit": "pM"}
    ]}
  ]
}
